From publication doi:10.1101/2022.02.17.480855

Target: FtsZ from Synechococcus 7942 (Synechococcus 7942)
Assay: MST

In the case of Microcystin-LR (peptide), the Kd is reported as 1120 nM.
